Here are results for five molecules from patent US20110236380A1 (published 2011).

Assay [1] concerns the target T1, human IL-13 (human, UniProt P35225 35-146, limits assumed). As to the kind of experiment: cell-based or functional assay.
The target in assay [2] is T2, Cynomolgus monkey IL-13 (cynomolgus monkey, UniProt Q0PW92 21-132). As to the kind of experiment: cell-based or functional assay.
A further assay addresses rhesus IL-13 (rhesus, UniProt Q864V6 19-132, limits assumed). As to the kind of experiment: cell-based or functional assay.
Assay [3] deals with T1, human IL-13. As to the kind of experiment: Biacore SPR, biotinylated IL-13 on streptavidin chip, dAb as analyte, 1:1 model, 25 C. As for the experimental part:
(§1) The binding affinities of purified DOM10 dAbs to both human and cyno IL-13 were assessed by Biacore analysis. Analysis was carried out using biotinylated IL-13. About 150 RU of biotinylated IL-13 was coated to a streptavidin (SA) chip (Biacore, GE healthcare). The surface was regenerated back to baseline using 0.1 M Glycine pH 2. dAbs were passed over this surface at defined concentrations using a flow rate of 50 μl/min. Data were analyzed using BIAevaluation software (Biacore, GE Healthcare) and fitted to the 1:1 model of binding. The binding data fitted well to the 1:1 model for all DOM10 dAbs. Biacore runs were carried out at 25° C.
For orientation: SPR reads the build-up and loss of mass on a sensor chip optically.

The target in assay [4] is T2, Cynomolgus monkey IL-13. The assay is described as above. The method, then:
as §1

Assay [5] deals with T1, human IL-13. As to the kind of experiment: DOM10 sandwich ELISA: dAb dilution series mixed with 150 pg/ml human IL-13, loss of IL-13 detection by the kit antibodies. The method, then: dAbs were also tested in DOM10 ELISA to assess the potency against human IL-13 and cell based HEK Blue-STAT6 (HEK STAT) assays to assess the potency against human, cyno and Rhesus IL-13. DOM10 ELISA measures the ability of DOM10 dAbs to bind IL-13 and prevent its binding to an IL-13 detection antibody. A MAXISORP™ plate (high protein binding ELISA plate, Nunc, Denmark) is coated overnight with 2.5 μg/ml coating antibody (Module Set, Bender MedSystems, Vienna, Austria), then washed once with 0.1% (v/v) Tween 20 in PBS before blocking with 0.5% (w/v) BSA 0.05% (v/v) Tween 20 in PBS for 2 hours at room temperature. The plate is washed twice as previously detailed before the addition of 150 pg/ml IL-13 (GSK) mixed with a dilution series of DOM10 dAb (i.e., an anti-IL-13 dAb) and incubated for 1 hour. The plate is washed twice before binding of IL-13 to the capture antibody is detected using biotin conjugated detection antibody (Module Set, Bender Medsystems), followed by peroxidase labelled Streptavidin (Module Set, Bender MedSystems). Finally the plate is washed three times before incubation with TMB substrate (KPL, Gaithersburg, USA), and the reaction stopped by the addition of HCl and the absorbance read at 450 nm. Anti-IL-13 dAb activity causes a decrease in IL-13 binding and therefore a decrease in absorbance compared with the IL-13 only control.
A general note: ELISA stands for enzyme-linked immunosorbent assay.

Sequence of rhesus IL-13 (Q864V6 19-132 limits assumed): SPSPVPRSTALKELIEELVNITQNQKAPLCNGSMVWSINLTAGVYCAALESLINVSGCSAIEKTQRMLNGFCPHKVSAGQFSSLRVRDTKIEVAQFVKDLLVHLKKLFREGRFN
T2 sequence (Q0PW92 entry or part of it): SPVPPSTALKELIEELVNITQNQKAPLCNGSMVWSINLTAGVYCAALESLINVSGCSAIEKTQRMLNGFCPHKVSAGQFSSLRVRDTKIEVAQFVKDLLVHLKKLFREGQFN
T1 sequence (P35225 35-146 limits assumed): as the sequence (Q0PW92 entry or part of it) above, with S1G, K10R, V42M, N67S, R83H, V100L counted along it

B1: DOM10-53-567 (other)
VH: GVQLLESGGGLVQPGGSLRLSCAASGFVFAWYDMGWVRQAPGKGLEWVSSIDWHGEVTYYADSVKGRFTISRDNSKNTLYLQMNSLRAEDTAVYYCATAEDEPGYDYWGQGTLVTVSS
Regarding B1, the “HEK assay Human EC50” value with human IL-13 [1] stood at 0.31 nM. Also, the “HEK assay Cyno EC50” value in the assay with Cynomolgus monkey IL-13 [2] worked out at 5.1 nM. In addition, the “HEK assay Rhesus EC50” value in the assay with rhesus IL-13 turned out to be 2.8 nM. Besides, the values for the Kd with human IL-13 [3] and with Cynomolgus monkey IL-13 [4] were 0.072 nM and 2.6 nM, respectively. Further, the EC50 – broadly, the concentration at which the effect is half-maximal – with human IL-13 [5] came to 0.021 nM.

B2: DOM10-53-616 (other)
VH: GVQLLESGGGLVQPGGSLRLSCAASGFVFPWYDMGWVRQAPGKGLEWVSSIDWHGKITYYADSVKGRFTISRDNSKNTLYLQMNSLRAEDTAVYYCATAEDEPGYDYWGQGTLVTVSS
Consider B2, for which the “HEK assay Human EC50” value with human IL-13 [1] is 2.9 nM. Further, the “HEK assay Cyno EC50” value in the assay with Cynomolgus monkey IL-13 [2] was found to be 5.9 nM. Besides, the “HEK assay Rhesus EC50” value with rhesus IL-13 was found to be 7.6 nM. Further, the Kd (commonly the free concentration of one partner at which half of the binding sites on the other are occupied at equilibrium, for simple one-to-one binding) with human IL-13 [3] was 0.13 nM; with Cynomolgus monkey IL-13 [4] it was 3.2 nM. In the assay with human IL-13 [5], the EC50 was 0.048 nM.

B3: DOM10-53-546 (other)
VH: GVQLLESGGGLVQPGGSLRLSCAASGFVFPWYDMGWVRQAPGKGLEWVSSIDWKGGKTYYADSVKGRFTISRDNSKNTLYLQMNSLRAEDTAVYYCATAEDEPGYDYWGQGTLVTVSS
Regarding B3, the “HEK assay Human EC50” value with human IL-13 [1] was found to be 1 nM. Also, in the assay with Cynomolgus monkey IL-13 [2], the “HEK assay Cyno EC50” value turned out to be 5.9 nM. Further, the “HEK assay Rhesus EC50” value with rhesus IL-13 was determined as 11.4 nM. Besides, the Kd was 0.094 nM with human IL-13 [3] and 2.1 nM in the assay with Cynomolgus monkey IL-13 [4]. In the assay with human IL-13 [5], this molecule showed an EC50 of 0.125 nM.

B4: DOM10-53-474 (other)
VH: GVQLLESGGGLVQPGGSLRLSCAASGFTFAWYDMGWVRQAPGKGLEWVSSIDWHGEVTYYADSVKGRFTISRDNSKNTLYLQMNSLRAEDTAVYYCATAEDEPGYDYWGQGTLVTVSS
notes: Anti-IL-13 immunoglobulin single variable domain (dAb), monomer
For B4, the “HEK assay Human EC50” value with human IL-13 [1] was determined as 2 nM. For the same molecule, the “HEK assay Cyno EC50” value with Cynomolgus monkey IL-13 [2] came to 30.1 nM. Moreover, in the assay with rhesus IL-13, the “HEK assay Rhesus EC50” value came out at 30.2 nM. In addition, the Kd with human IL-13 [3] was determined as 0.259 nM; in the assay with Cynomolgus monkey IL-13 [4], 9.3 nM. In the assay with human IL-13 [5], this molecule gave an EC50 of 0.217 nM.

B5: DOM10-53-568 (other)
VH: GVQLLESGGGLVQPGGSLRLSCAASGFVFAWYDMGWVRQAPGKGLEWVSSIDWHGKITYYADSVKGRFTISRDNSKNTLYLQMNSLRAEDTAVYYCATAEDEPGYDYWGQGTLVTVSS
With B5, the “HEK assay Human EC50” value in the assay with human IL-13 [1] came to 0.62 nM. In the assay with Cynomolgus monkey IL-13 [2], the “HEK assay Cyno EC50” value turned out to be 8.8 nM. For the same molecule, in the assay with rhesus IL-13, the “HEK assay Rhesus EC50” value was 8.1 nM. The values for the Kd in the assay with human IL-13 [3] and in the assay with Cynomolgus monkey IL-13 [4] were 0.07 nM and 1.6 nM, respectively.
